# Laboratory results: PMC3480499, “Isolation of Reovirus T3D Mutants Capable of Infecting Human Tumor Cells Independent of Junction Adhesion Molecule-A” (PLoS ONE, 2012)
# Target: the molecule itself
# Experiment: in vitro trimerization assay (mild SDS-PAGE at 4°C); [35S]-methionine labelled in vitro transcription-translation products incubated in sample buffer (2% SDS, 2.5% β-mercaptoethanol) 30 min at 37°C (or boiled 5 min to disrupt trimers), run on a 10% SDS-polyacrylamide gel kept at 4°C, autoradiography
row,Protein,stoichiometry N
1,"reovirus type 3 Dearing (T3D) spike protein σ1, wild type (natural protein, [35S]-methionine labelled, a stop codon was introduced behind the S1 ORF so that the Myc-His tag of the vector is absent; also called wt σ1; wt T3D σ1) MDPRLREEVVRLIIALTSDNGASLSKGLESRVSALEKTSQIHSDTILRITQGLDDANKRIIALEQSRDDLVASVSDAQLAISRLESSIGALQTVVNGLDSSVTQLGARVGQLETGLAELRVDHDNLVARVDTAERNIGSLTTELSTLTLRVTSIQADFESRISTLERTAVTSAGAPLSIRNNRMTMGLNDGLTLSGNNLAIRLPGNTGLNIQNGGLQFRFNTDQFQIVNNNLTLKTTVFDSINSRIGATEQSYVASAVTPLRLNSSTKVLDMLIDSSTLEINSSGQLTVRSTSPNLRYPIADVSGGIGMSPNYRFRQSMWIGIVSYSGSGLNWRVQVNSDIFIVDDYIHICLPAFDGFSIADGGDLSLNFVTGLLPPLLTGDTEPAFHNDVVTYGAQTVAIGLSSGGAPQYMSKNLWVEQWQDGVLRLRVEGGGSITHSNSKWPAMTVSYPRSFT",3
2,"reovirus T3D spike protein σ1 with the Q336R substitution (natural protein, [35S]-methionine labelled, Outer capsid (attachment/spike) protein σ1 of mammalian reovirus type 3 Dearing, S1 ORF without tag, with Q336R made by mutation PCR on pDGC-S1delTag; Q336R arose spontaneously in the jin-1 and jin-2 viruses; Carries only Q336R, not T193M of jin-1 or G187R of jin-2; Parent plasmid as for m1; also called σ1-Q336R; S1Q336R) MDPRLREEVVRLIIALTSDNGASLSKGLESRVSALEKTSQIHSDTILRITQGLDDANKRIIALEQSRDDLVASVSDAQLAISRLESSIGALQTVVNGLDSSVTQLGARVGQLETGLAELRVDHDNLVARVDTAERNIGSLTTELSTLTLRVTSIQADFESRISTLERTAVTSAGAPLSIRNNRMTMGLNDGLTLSGNNLAIRLPGNTGLNIQNGGLQFRFNTDQFQIVNNNLTLKTTVFDSINSRIGATEQSYVASAVTPLRLNSSTKVLDMLIDSSTLEINSSGQLTVRSTSPNLRYPIADVSGGIGMSPNYRFRQSMWIGIVSYSGSGLNWRVRVNSDIFIVDDYIHICLPAFDGFSIADGGDLSLNFVTGLLPPLLTGDTEPAFHNDVVTYGAQTVAIGLSSGGAPQYMSKNLWVEQWQDGVLRLRVEGGGSITHSNSKWPAMTVSYPRSFT",3
3,"reovirus T3D spike protein σ1 with the Y313A substitution (natural protein, [35S]-methionine labelled, Outer capsid (attachment/spike) protein σ1 of mammalian reovirus type 3 Dearing, S1 ORF without tag, with Y313A made by mutation PCR on pDGC-S1delTag; Forms only intermediate trimers (shaft trimerized, head monomeric), no mature trimers; Parent plasmid as for m1; also called σ1-Y313A; S1Y313A) MDPRLREEVVRLIIALTSDNGASLSKGLESRVSALEKTSQIHSDTILRITQGLDDANKRIIALEQSRDDLVASVSDAQLAISRLESSIGALQTVVNGLDSSVTQLGARVGQLETGLAELRVDHDNLVARVDTAERNIGSLTTELSTLTLRVTSIQADFESRISTLERTAVTSAGAPLSIRNNRMTMGLNDGLTLSGNNLAIRLPGNTGLNIQNGGLQFRFNTDQFQIVNNNLTLKTTVFDSINSRIGATEQSYVASAVTPLRLNSSTKVLDMLIDSSTLEINSSGQLTVRSTSPNLRYPIADVSGGIGMSPNARFRQSMWIGIVSYSGSGLNWRVQVNSDIFIVDDYIHICLPAFDGFSIADGGDLSLNFVTGLLPPLLTGDTEPAFHNDVVTYGAQTVAIGLSSGGAPQYMSKNLWVEQWQDGVLRLRVEGGGSITHSNSKWPAMTVSYPRSFT",3
